The series concerns the molecule itself. As to the kind of experiment: cross-linking; glutaraldehyde cross-linking of MCU NTD-E in solution, in PBS and in crystallization conditions.

B1: MCU NTD-E (extended N-terminal domain of MCU, residues 75-185) (domain or fragment, human, UniProt Q8NE86-1 75-185, looked up)
chain: VTVVYQNGLPVISVRLPSRRERCQFTLKPISDSVGVFLRQLQEEDRGIDRVAIYSPDGVRVAASTGIDLLLLDDFKLVINDLTYHVRPPKRDLLSHENAATLNDVKTLVQQ
notes: mitochondrial calcium uniporter (MCU), human, NP_612366, residues 75-185; In the crystal residues 183-185 were not modelled and the imidazole ring of His170 is possibly modified by unidentified adducts; source: purified (Ni-NTA, SEC on Superdex 75) by a procedure similar to that of T4 lysozyme-MCU NTD; cloned into pColdII
Take B1: the binding result is “binds”.
